Source: the DeepSol protein solubility set

Test: soluble on expression in E. coli; label from the status in PepcDB or PDB records

Sequence	soluble on expression in E. coli
MGSDKIHHHHHHMSKENIFDALKSGKIDYVRVEFVDILGNTKGRSLRRAEFENVINDNKGVDYPESLALMDYKDRPIKSRYEDIIAIPDLNTFVAIPYLERTARVLSFLAQPDGLPYPYCSRSILNKAIEKLKEAGYTLQVSFEPTFYLLNSALNPADYSKAFSLEGLLEQQNFLKLLIKYLEEIDIKVETINKHYGPGQYEVKLSQKPVLEAADSLISSREVIRDTAKMNNVIATFMPKPFKDYPSSSMDITLSLQTVDGKDIMYDPNDSKGIGLSKIAYNFISGILEHLPSILSIAAPTVNSYKRFKEVVTPNMPGIGSERHYIVRLPSYYKDTHQVEFRLADPLANPYILLASMIYAGLDGIERNLMANVNEYYGTLPQTLKESLSRLENDTYMKYNLGQDLISIYINIKNIEIEEYESQITEWERDYYLKAGW	not soluble
MGSDKIHHHHHHMHHESPIRRRKTRQIHVGKVAIGGDAPISVQSMTNTETRDIAATVAQIRRLEAVGADIVRISVPSMDAAEAFKTIRAQVETPLVADIHFDHRIALQVMEDGVDGLRINPGNIGSLDKTRLVVEMAKDKGIPIRIGVNAGSLEKDIQEKYGEPTPEALVESALRHVSILDELNFHDVKISVKASDIFLAVSAYRLLSEKVDYPLHLGITEAGGLRSGTVKSAIGLGLLLRDGIGDTIRVSLAADPVEEIRVGFDILKSLHLRQKGINLIACPSCSRQEFDVITTINALEARLEDILEPMDVSVIGCVVNGIGEAKEADIGLAGGDKRSILYYRGKQVDRVENNDIVDVLEKRIRAEIAERQATRHEG	not soluble
MVVIANAHNELIHDAVLDYYGKRLATCSSDKTIKIFEVEGETHKLIDTLTGHEGPVWRVDWAHPKFGTILASCSYDGKVLIWKEENGRWSQIAVHAVHSASVNSVQWAPHEYGPLLLVASSDGKVSVVEFKENGTTSPIIIDAHAIGVNSASWAPATIEEDGEHNGTKESRKFVTGGADNLVKIWKYNSDAQTYVLESTLEGHSDWVRDVAWSPTVLLRSYLASVSQDRTCIIWTQDNEQGPWKKTLLKEEKFPDVLWRASWSLSGNVLALSGGDNKVTLWKENLEGKWEPAGEVHQGGGGSGGGGATSKEFDGPCQNEIDLLFSECNDEIDNAKLIMKERRFTASYTFAKFSTGSMLLTKDIVGKSGVSIKRLPTELQRKFLFDDVYLDKEIEKVTIEARKSNPYPQISESSLLFKDALDYMEKTSSDYNLWKLSSILFDPVSYPYKTDNDQVKMALLKKERHCRLTSWIVSQIGPEIEEKIRNSSNEIEQIFLYLLLNDVVRASKLAIESKNGHLSVLISYLGSNDPRIRDLAELQLQKWSTGGCSIDKNISKIYKLLSGSPFEGLFSLKELESEFSWLCLLNLTLCYGQIDEYSLESLVQSHLDKFSLPYDDPIGVIFQLYAANENTEKLYKEVRQRTNALDVQFCWYLIQTLRFNGTRVFSKETSDEATFAFAAQLEFAQLHGHSLFVSCFLNDDKAAEDTIKRLVMREITLLRASTNDHILNRLKIPSQLIFNAQALKDRYEGNYLSE	soluble
AIAASALEQFVNNVRQLSAQGQMTQLCELINKSGELLAKNLSHLDTVLGALDIQEHSLGVLAVLFVKFSMPNIPDFETLFSQVQLFISTCNGEHIRYATDTFAGLCHQLTNALVERKQPLRGISILKQAIDKMQMNTNQLTSVHADLCQLCLLAKCFKPAVPFLELDMMDICKENGAYDAKHFLCYYYYGGMIYTGLKNFERALYFFEQAITTPAMAVSHIMLEAYKKYILVSLILHGKVQQLPKYTSQIVGRFIKPLSNAYHELAQIYATNNPAELRALVNKHSETFTRDNNSGLVKQCLSSLYKKNIQRLTKTFLTLSLQDMASRVQLSGPQEAEKYVLHMIEDGEIYASINQKDGMVCFHDNPEKYNNPAMLHKIDQEML	soluble
MGHHHHHHSHANSIDLIGYVHQPVQFDSTLDGKFWAGTVISHEPSSDSKSESDSSSNFWIPVLFEGDLAHTANSYLKKNDRVHITGQILGDVIQSGANSDQAHVQLFKSFHGSFSHQVMVRD	not soluble
LSPLPRAYQWADGSAYLNHVELVRKARGAEVPASFYTDPLMYQGGSDAFLAPTADIPLRDEAWGLDFEGEVAVVTGDVPLGAPADAKYIRLLMLVNDVTLRGLIPPELAKGFGFFQSKPATAFSPVAVTPDELGDAWDGGKVHLPLLVDYNGAFYGKPDCGVEMQFSFPQLVAHVSKTRELVAGSIVGSGTISNKDRSVGSCCLAEQRMIETIEQGAPKTPFMKVGDTVRIEMRNAAGDSIFGAIEQTVVKHD	not soluble
MSQEHESSFQDPSRDELIQQVKELQIINANQRPEKILQEAFEKINLLVITIDQDGLIVYANEAFLEVIGWEKQRLLGENWKEFLEPGKDKNKEEHIYTLIKKQGFIDQLKRKFLSKEGDYRTIKFNVVIHHPIGNDVHLTTLIGEDIT	not soluble
MVHHDGTLQALITAYQKTPAFTDLAEATRKGYIRHIRQIEADFGDMPVQALADPRVRGEFLDWRDRLAQKSKRSADYAFSVLARILSWAHDRRKIPVNPCEKPGRLYTLEHHHHHH	not soluble
MAHHHHHHMRVLSLLSALCLVSTCRGHRNLFARNNYLQYLRSQNFMQEKPKFQKLNQNYSEDLNEFDNYEDDELDAENVEATSKERVTQKSGTSSSSSENKLEFKNIEKELNNMGEILHEEKDNLLLMGGGRECSVSDKGTLDVSLNSGDIFNLTKYTVEMSSSGILIRDTQNSNVVKEIAFDTVKLPIETIEETRECWKIRSHKETFLFCERSKEARDRWITNMLKALFCYNTNNLTIDEGVQTGLSSKVDIPKESTVDARIAASLKDEPNGSGDNSSHGRAKRKGNNNITISNLKNDKPEIVVN	not soluble
MDVVFETVNCLESNRKIIIVKLPDGSSEKFFFNVTKRAFEKIVCVDGKPVQMDSDLTPHHSVWCPHIHKNIIFAYNHLLRMNLQYLFDSETLSFHETKCDQCHLDPKKSTNVKQILLVAASPKIRRPIVLTMSQEGRVLKMCYDEIEKNYVDMSPTEIKALTQLKDVTAAMEDLTLDSKVMESDLIPLVKEKSVFLPHDSILIAKNKKTNKIGQYVFDRYHHQFLEVVMSDIEIKQEMPNIAKLINVTMSTKTEQAISIRCTPGIGELKKFHYNRETASFDPMEEKAIVESDEEIQSFIEEIEKTQDIVCKKIKAILWFYHNVKPFLAKKLENPVKKNNDYKRYVFKPVEPEEKVDDEMDSVSEPESDSLSMSSSSRSSSRSSLSSDDSFEMVVDIDFVE	not soluble
MAASEAAVVSSPSLKTDTSPVLETAGTVAAMAATPSARAAAAVVAAAARTGSEARVSKAALATKLLSLSGVFAVHKPKGPTSAELLNRLKEKLLAEAGMPSPEWTKRKKQTLKIGHGGTLDSAARGVLVVGIGSGTKMLTSMLSGSKRYTAIGELGKATDTLDSTGRVTEEKPYDKITQEDIEGILQKFTGNIMQVPPLYSALKKDGQRLSTLMKRGEVVEAKPARPVTVYSISLQKFQPPFFTLDVECGGGFYIRSLVSDIGKELSSCANVLELTRTKQGPFTLEEHALPEDKWTIDDIAQSLEHCSSLFPAELALKKSKPESNEQVLSCEYITLNEPKREDDVIKTC	soluble
MGSDKIHHHHHHMSSSGKVIVVGAGIVGLATAWHLQEHGFEVSVLDRDGVAAGSSWGNAGWLAPAKTIPLSEPGLWTYGPKELFNPVSPMHMPLRVDPKLWLFLAQFMAQAFQRKWDSTMADLTEIDKVALEAFDELSIGGVEGLTHEGPFVIGFEEERQSAGFRKEIDGVSRHGQKVEMSRLENPQELAPMLNEQIQVAYRLEGQRFIEPGPYVQSLADAVVKRGGVIRAGAEVVHVAKGDRPAVILADGSREEADKVVVATGAWLPGLTREYGVKTLVQAGRGYSFSVATDIPAKHSVYLPHHRMACTPYEGRFRIAGTMEFRGPDEPFQQGRVDAIVSQAKKVMRGIDFNDRQDEWVGSRPVTPDGRPLIGQTKAENIYVAGGHGMWGVVLGPATGKYLAELMATGNTNPIIKPFDPLR	not soluble
MHHHHHHLVPRGSMLDFEKPLFEIRNKIESLKESQDKNDVDLQEEIDMLEASLERETKKIYTNLKPWDRVQIARLQERPTTLDYIPYIFDSFMELHGDRNFRDDPAMIGGIGFLNGRAVTVIGQQRGKDTKDNIYRNFGMAHPEGYRKALRLMKQAEKFNRPIFTFIDTKGAYPGKAAEERGQSESIATNLIEMASLKVPVIAIVIGEGGSGGALGIGIANKVLMLENSTYSVISPEGAAALLWKDSNLAKIAAETMKITAHDIKQLGIIDDVISEPLGGAHKDIEQQALAIKSAFVAQLDSLESLSRDEIANDRFEKFRNIGSYIE	soluble
MLPGTFFEVLKNEGVVAIATQGEDGPHLVNTWNSYLKVLDGNRIVVPVGGMHKTEANVARDERVLMTLGSRKVAGRNGPGTGFLIRGSAAFRTDGPEFEAIARFKWARAALVITVVSAEQTK	soluble
MQDKCMMRPLSNPLTEAYNVQNLYQCLNCDDYHLCNGSLNCDPLVDREGIVCTVTGKYIQCNVRELEHHHHHH	not soluble
MSLEIPKDFFVKDGEPNVKIVVGSEGAAMDVVSAADIAAAIGSLLYTEKEVKVSDVSVVVRKDITYDPDDIPVFNNFYPNKNQVFIVGQDSLKDVEAWWNGSAFSANYTASVWNGGTYSGTYSLELENVANYGKYDLTGELTLKGITLEEIANNEVNFKDIEDFKDMTVKINSAVLNITLAVYNWTKTVKAKDPITGVTTTKVKWTLSNVQPGAGYSISDTISKGVGEGVTLKVFDKEFPIMFVGKAISKNAIVDAADSFVYGTYHGTDFYDQGQEVEFDGYKVEILDIDIQRNEGHHHHHH	not soluble
MQNEKTLRKIKKLLALSKSSNPHEAAKALEMAQKLMQENRINQVEIEFSQYHGKQKTAKKSARYVHQLVGVITRAFGVDAYMSNFYPDKDEAEEKMHVVFYGAEGRPEIASYCFDVLYRQLQTARKEFLATQSKRLKRSTLISRGDEFCQGWVFGVHENVKEFAMTPEEKGKLERYRYNGFKDLQTAKVRDAGETRDYGLALSQGYKQGSKVTLNHGVNGKETTKLGGDEMKENNGWIACNLGSA	not soluble
MTDKENFYSGFFLGRLPGSFDSRFLIKVACFQPGKEERNVFELTTDTKREEDYGEMVHFWVDKGPLQNKSFVRFEENYETFFIHENKMFDRIVHTDKDFYVGVNDLPDSDIYIHPDLGKMIDTRSIVTPGKKYNFITFEVKQNENNSFDIEIVGGEVQGKEKNSEEPSAKEKIIQKMEQVHEVMKVEYEYNKNEETANWDVIGHLKLIKFYDKDLTSGLRPVLRLMDNRHVALFKKQRETMPIKMIKVIEVDGIWKDDVNFVPQEGTLLPTDHDEKTVVLLGNDYRHKFERLFKREDVFRLESNNTLTHLKFWQYGLEKI	not soluble
MKLNFNPVTKEEIHQLETALLVGTLFRKEVLEEIRNSAERLTWVDSLAVAAGALARAKAGMTASEIAEELGRTEATIREHVKGETKAGKLVNETYELLKEGKLSVEGLIGEGIKVVTTTTGSDEKLQEVKKELEEIKQKLESVIQKL	soluble
MGSDKIHHHHHHVVLAVVVGRRTASLALRGRGGRSKGGIHLPQNRIRFGSVGCRDLRSQLRRLIEDETMSEPAEAFYLPLGDNRYEPTRATESPWDSQAQHGGPPTALLGHLLDTAAGPDKRLARITADFLGAIPRRPFRVDTVEIRPGRRIALLEARMVFDDRPAVVARAWAIETGPTPPATGEQLHPPALADADPALDLTGWGYGEAIEWRYTRGGYGTADSAADVWTRVRIPLIAGEKLTGLARTLVVADSANGVSAALPMEHWLFIPPSITVTLARFPDTEWVHMACRSHLSPDGLGVSHATLSDTDGYLGEVSQPLLVRPR	not soluble
